This data set in a line: yeast display, Sf9 membrane polyspecificity reagent, FACS + sequencing; frameworks hold sequencing errors. Summed up: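 Using colony PCR, genes from sorted yeast display clones were amplified, then sequenced on MiSeq at 2 × 250 and filtered by CDR length. The clones had been stained with 10% biotinylated, detergent-solubilized Sf9 membrane reagent for 1 hour at 4 °C and sorted by FACS into low and high (top ~1%) gates on anti-HA and streptavidin fluorescence. Polyreactivity labels come from the gate of origin.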
Consider “QFQLVESGGGLFQAGGSLRLSCAAYGRISLRNGMGWYRQAPGKERELVAAISRGGSTYYADSVKGRFTISRDNAKNTVYLQMNSLKPEDTAVYYCNADIRPIYGDDDYWGQSTQVTVSS”, for which the “polyreactivity (PSR sort gate)” value was “low polyreactivity”. The result for “QVQLVESGGGLVQAGGSLRLSCAASGRTFLIYAMGWYRQAPGKERELVAGITRGSTTYADSVKGRFTISRDNAKNTVYLQMNSLKPEDTAVYYCAARNYSVATYGEYDDWGQGTQVTVSS” reads “high polyreactivity”; that for “QVQLVESGGGLVQAGGSLRLSCAASGITLRRNAMGWYRQATGKERELVAAISWSGGRTYYADSVKGRFTISRDNAKNTVYLQMNSLKPEDTAVYYCAARGYPLTAIDYWGQGTQVTVSS”, “high polyreactivity”; that for “QVQLVESGGGLVQAGGSLRLSCAASGFIFYGNTMGWYRQAPGKERELVAAISWSGGTTYYADSVKGRFTISRDNAKNTVYLQMNSLKPEDTAVYYCNRAAFRYRYDYWGQGTQVTVSS”, “high polyreactivity”. The result for “QVQLVESGGGLVQAGGSLRLSCAASGRIFYPYAMVWYRQAPGKERELVAGISFRDGSRYYADSVKGRFTISRDNAKNTVYLQMNSLKPEDTAFYYSAAVGQTHTTSPLSTKFDYWGQGTQVTVSS” reads “low polyreactivity”. The result for “QVKLLDSGGGLVQAGGSLRLSCAASGRNFYYYAMGWYRQAPGNERELVAAISSCGSTYADSVKGRFTISRDNAKTTVYLQMNSLKPEDTAVYYCAAYLSRLGPSGYYYWGQGTQVTVSS” reads “high polyreactivity”. With “QVQLVESGGGLVQAGGRLLLSCAASGSTFTRNAMGWYRPAPGKERELVAAISSSGSRTYYADSVKGRFTISRDNAKNTVYLQMNSLIPADTAVYYCNKTKHSYLYTDDDYWGQGTQVTVSS”, the “polyreactivity (PSR sort gate)” value is recorded as “high polyreactivity”. To “QVQLVESGGGLVQAGGSLRLSCAASGSIFWYYAMGWYRQAPGKERELVATIRKRSGSTYYADSVKGRFTISRDNAKNTVYLQMNSLKPEDTAVYYCAADYTAYGYDYWGQGTQVTVSS” belongs “low polyreactivity”; to “QVQLVESGGGLVQAGGSLRLSCAASGFIFRYYAMGWYRQAPWKERELVASITRSGGRTYYADSVKGRFTISRDNAKNTVYLQMNSLKPEDTAVYYCAARHYRSEYEYDYWGQGTQVTVSS”, “high polyreactivity”; to “QVQIVDSGVGLVQAGGSLRLSCAASGSTFLKNAMGWYRQAPGKERELVAAISYSTTPTYYADSVKGRFTFSRDNAKNTVYLQMNSLKPEDNAVYYCNIASYWGSGFDFWGLGTQVTVSS”, “low polyreactivity”. To “QVQLVESGGGLVQAGGSLRLSCAASGRTFGGNAMGWYRQAPGKERELVAAISSGGSTNYADSVKGRFTISRDNAKNTVYLQMNSLKPEDTAVYYCAAGWYWWARYDYWGQGTQVTVSS” belongs “low polyreactivity”. To “QVQLVVSGGGLVQAGGSLRLSCAASGSIFVSNAMGWYRQAPGKEREFVAAITGSGGSTYYADSVKGRFPISRDNAKNTVYLQMNSLKPEDTAVYYCNAGLIHFYAGNYDLYDYWGQGTQVTVSS” belongs “low polyreactivity”; to “QVQLVESGGGLVQAGGSLRLSCAASGRIFASYAMGWYRQAPGKERELVASITRRGGSTYYADSVKGRFTISRDNAKNTVYLQMNSLKPPGSTYEGGYWGQGTQVTVSS”, “low polyreactivity”. On to “QVQLVESGGGLVQAGGSLRLSCAASGSTLVTYAMGWYRQAPGKERELVAAISWRGGSTYYADSVKGRFTISRDNAKNTVELQMNSLKPEDTAVYYCNKLRAYKESETYYYWGQGTQVTVSS”, for which the “polyreactivity (PSR sort gate)” value was “low polyreactivity”.

For “QVQLVESGGGLVQAGGSLRLSCAASGRTLKYNAMGWYRQAPGKERELVAAISWSGTRTYYADSVKGRFTISRDNAKNTVYLQMNSLKPEDTAVYYCALYGGLGDRFRPRYYWGQGTQVTVSS”, the “polyreactivity (PSR sort gate)” value is “high polyreactivity”.

As for “QVQLVESGGGLVQAGGSLRLSCAASGYIFDYNAMGWYRQAPGKERELVAAITFRDGSTYADSVKGRFTISRDNAKNTVYLQMNSLKPEDTAVYYCNRRSQVHSHSKHDYWGQGTLVTVSS”, the “polyreactivity (PSR sort gate)” value is “low polyreactivity”.

Take “QVQLVESGGGLVQAGGSLRLSCAASGLIFNNYAMGWYRQAPGKERELVATISRTGTSTYYADSVKGRFTISRDNAKNTVYLQMNSLKPEDTAVYYCNAVIQLFEWGWDDEYDYWGQGTQVTVSS”: the “polyreactivity (PSR sort gate)” value is “low polyreactivity”.

On to “QVQLVESGGGLVQAGGSLRLSCAASGSTLAGYAMGWSRQAPGKERELVAAITRRGGRTYYADSVKGRFTISRDNAKNTVYLQMNSLKPEDTAVYYCAAQRSVKVDYWGQGTQVTVSS”, for which the “polyreactivity (PSR sort gate)” value is “high polyreactivity”. The result for “QVQLVESGGGLVQAGGSLRLSCAASGRIFLSNGMGWYRHAPGKERELVAGITTGGGDSTYYADSVKGRFTISRDNAKHTVYLQMNSLKPEDTAVYYCNADSVYAGFDYWGQGPQVTVSS” reads “low polyreactivity”; that for “QVQLVESGGGLVQAGGSLRLSCAASGSTFYPNARGWYRQAPGKERELVAAISWSGGRTYYADSEKGRFTISRDNAKNTVYLQMNSLKPEDTAVYYCYRYHRTSGRAKYDYWGQGTQVTVSS”, “high polyreactivity”; that for “QVQLVESWGGLVQAGGSLRLSCAASGIFYPMGWYTQAPGKERELVAAISSVGSTKYADSVKGRFTISRDNAKNTVYFQINSLKPEDTAVYYSNADVTRASSRYNSWGQGTQVTVSS”, “low polyreactivity”. With “QVQLVESGVGLVQAGGSLRLSCAASGSTFYYYAMGWYRQAPGKERELVAAISWSGASTFYADSVKGRFTISRDNAKITVYLQMNSLKPEDTAVFYCAARYYGQPQYQPLYYWGQGTQVTVSS”, the “polyreactivity (PSR sort gate)” value is “high polyreactivity”. Take “QVQLVESGGGLVQAGGSLRLSCAASGSTFEYNAMGWYRQAPGKERELVASSTNYADSVKGRFTISRDNAKNTVYLQMNSLKPEVTAVYYCAAYQDYVYSESLFSVSARMYYWGQGTQVTVSS”: the “polyreactivity (PSR sort gate)” value is reported as “low polyreactivity”. With “QVQLVESGGGLVQAGGSLRLSCAASGSTFHPNGMGWYRQAPGQEREFVAAIRRSGGSTYYADSVKGRFTISRDNAKNTVYLQMNSLKPEDTAVYYCAAKHYYYSPYVRYDPPPGYYWGQGTQVTVSS”, the “polyreactivity (PSR sort gate)” value is reported as “high polyreactivity”.

For “QVQLVESGGGLVQAGGSLRLSCAASGYIFERNAMGWYRQAPGKERELVAAITDDGDDTYYADSVKGRFTISRDNAKNTVFLLMNSLKPEDTAVYYCAKDLYYGDYYYWGQGTQVTVSS”, the “polyreactivity (PSR sort gate)” value is listed as “low polyreactivity”.

Turning to “QVQLVESGGGLVQEGGSLSLSCAASGYIFYIYAMGWYRQAPGKERELVATISWSGGDTYYADSVKGRFTISRDNANNTVYLQMNSLNPEDTAVYYCATEVGQSWAGDGDYEYWGQGTQVTVSS”, the “polyreactivity (PSR sort gate)” value was “low polyreactivity”. To “QVQLVESGGGLVQAGGSLRLSCAASGSIFGYYAMGWYRQAPGKERELVAAITTRGGRTYYADSVKGRFTISRDNAKNTVYLQMNSLKPEDTAVYYCAARTGRGRYDYWGQGTQVTVSS” belongs “high polyreactivity”; to “QVQLQVSGGDLLQAGGSLRLSCAASGTIYGHTSMGWYRQAPGKEREFVAAITDGGNTNYADSVKGRFTISRDNAINTVYLQMISLKPEDTAVYYCEVLFSDVAYYAYWGQGTQVTVSS”, “low polyreactivity”; to “QVHLVESVGGLVQAGGSLRLSSAASGSTFGYYAMGWYRQAPGKERELVAAINARGGSTYYADSVKGRFTISRDNAKNTVYLQMNSLKPEDTAVYYCAAVHIYSYGIYDYWGQGTQVTVSS”, “high polyreactivity”. To “QVQLVESGGGLVQAGGSLRLSCAASGSTFGRYAMGWYRQAPGKERELVAAINFNGGRTYYADSVKGRFTISRDNAKNTVYLQMNSLKPEDTAVYYCNALQQYALSRYYWGQGTQVTVSS” belongs “high polyreactivity”; to “QVQLVESGGGLDQAGASLRLSCAASGRIYVVNAMGWYREAPGKEMELVATNTRSGGITFYPDSVKGRFTISRDNAKNTVYLQMNSLNPEVTAVYYCNADVLFYTYYTRGRFDFDYWGQGTQVTVSS”, “low polyreactivity”. To “QVQLVESGGGLVQAGGSLRLSCAASGSTFKGNAMGWYRQAPGKERELVAAINRSGTSTYYADSVKGRFTISRDNAKNTVYLQMNSLKPEDTAVYYCAADKAPYSTEGDSWGQGTQVTVSS” belongs “high polyreactivity”; to “QVQLEESGGGLVQAGGSLRLSCAASGRTFRINDMGWYRQAPGKERELVATINSTGSTNYADSVKGRFTISRDNAKNTVYLQMNSLKPEDTAVYYCNAYLYYYRYHYNYWGQGTQVTVSS”, “low polyreactivity”; to “QVQLVESGGGLVQAGGSLRLSCAASGNTFGYNAMGWYRQAPGKERELVAAISSSGTRTYYADSVKGRFTISRDNAKNTVYLQMNSLKPEDTAVYYCNARSTRYKFGYWGQGTQVTVSS”, “high polyreactivity”. Regarding “QDQLVESGGGLVQAGGSLRLSCAASGSIFAWNAMGWYRQAPGKERELVAVITSGGSTNYADSVKGRFTISRDNAKNTVYLQMNSLKPEDTAVYYCAARSWVYSVIGDYWGQVTQVTVSS”, the “polyreactivity (PSR sort gate)” value is given as “low polyreactivity”. On to “QVQLVESGGGLVQAGGSLRLSCAASGGIFGGYAMGWYRQAPRKERELVATITSGTSTNYADSVKGRFTISRDNAKNTVYLQMNSLKPEDTAVYYCNAGGVYPRFTFLEQGYEMEYWGQGTQVTVSS”, for which the “polyreactivity (PSR sort gate)” value is on record as “low polyreactivity”. “QVQLVESGGGLVQAGGSLRLSCAASGFIFGGYAMGWYRQAPGKERELVAAISSGGGTTYADSVKGRFTISRDNAKYTVYLQMNSLKPEDTAVYYGAAVTRDYRNDRRRQRYYYWGQGTQVTVSS”: the “polyreactivity (PSR sort gate)” value is given as “high polyreactivity”. The result for “QVQLVESGGGLVQAGGSLRLSCAASGRIFPRNTMGWYRQAPGKQRELVAAISTRGGSTYYADSVKGRFTISRDNAKNTVYLQMNSLKPEDTAVYYCAAGRRFPAIYSTGNYWGQGTQVTVSS” reads “high polyreactivity”; that for “QVQLVESGGGLVQAGGSLRLSCAASGSTFPSYAMGCYRQAPAKERELVAAINSGGGTNYADSVKGRFTISRDNAKNTVYLQMNSLKPEDTAVYYCAKSRYDYTKTEGGYWGQGTQVTVSS”, “low polyreactivity”; that for “QVQLVESGGGLVQAGGSLRLSRAGCGRIFFVYAMRWYRQAPGKERELVAALSVSDVSTSYADSVKGRFTISRDNAKNTVFLQMNSLKPEDTAVYYCLAAFRFYASSRIAGEDYWGQGTQVTVSS”, “low polyreactivity”. To “QVQLVESGGGLVQEGGSLRLSCAASGRIFNTNAMGWSRQAPGKERELVAGITDSGDSTYDADSVKGRFTISRDNAKNTVYLQMYSLKPEDTGVYYCATDPASPYIYDYWGQGTQVTVSS” belongs “low polyreactivity”.

(Values after the nanobody polyreactivity screen of Harvey et al. (2022).)
